The values that follow come from article PMC7279889, “FMRP promotes RNA localization to neuronal projections through interactions between its RGG domain and G-quadruplex RNA sequences”.

For orientation: Kd means the equilibrium constant for the complex coming apart.

In one series the target is FMRP RGG domain (Mus musculus, UniProt P35922 478-614). Description: fluorescence polarization; 150 mM KCl; FP: 10 mM Tris-HCl (pH not stated), 150 mM KCl or LiCl, 5% glycerol, 10 nM RNA, protein 2 nM-1 uM, 5 min at 25 C, read at 26-27 C. To be noted: protein: recombinant; tags: GST-SBP (N-terminal, pGEX6); label: 3' 6-FAM; G4 intramolecular (folded in KCl). For orientation: Fluorescence polarisation rises when a labelled molecule tumbles more slowly, as on binding a larger partner.

The target of series [1] is FMRP KH domains (two KH domains) (Mus musculus, UniProt P35922 222-315). Description: fluorescence polarization; binding never detected; method and salt implied; FP: 10 mM Tris-HCl (pH not stated), 150 mM KCl or LiCl, 5% glycerol, 10 nM RNA, protein 2 nM-1 uM, 5 min at 25 C, read at 26-27 C. The note with it: protein: recombinant; tags: GST-SBP (N-terminal, pGEX6); label: 3' 6-FAM; G4 intramolecular (folded in KCl).

B1: rG4 (structured_RNA)
RNA: GGGAGGGAGGGAGGGUA
As for B1, the Kd with FMRP RGG domain was about 30 nM. Also, the binding result in series [1] is on record as “no binding”.
